Reference: US6340461B1 (priority 1996, dated 2002)

Key:
[1] = set-up: species or system baboons; details: in vivo, sc
[2] = set-up: species or system New Zealand white rabbits; details: rabbit, in vivo
[3] = biological target: T cell receptor Vβ11 on murine tumor-draining lymph node T cells (mouse); assay: cell-based or functional assay
[4] = biological target: T cell receptor Vβ5.1, 5.2 on murine tumor-draining lymph node T cells (mouse); assay: cell-based or functional assay
[5] = biological target: T cell receptor Vβ13 on murine tumor-draining lymph node T cells (mouse); assay: cell-based or functional assay
[6] = biological target: T cell receptor Vβ8.2 on murine T cells (mouse); assay: cell-based or functional assay
[7] = biological target: T cell receptor Vβ17 on murine tumor-draining lymph node T cells (mouse); assay: cell-based or functional assay
[8] = biological target: T cell receptor Vβ9 on murine tumor-draining lymph node T cells (mouse); assay: cell-based or functional assay
[9] = biological target: T cell receptor Vβ3 on murine T cells (mouse); assay: cell-based or functional assay
[10] = biological target: T cell receptor Vβ6 on murine tumor-draining lymph node T cells (mouse); assay: cell-based or functional assay
[11] = biological target: T cell receptor Vβ2 on murine tumor-draining lymph node T cells (mouse); assay: cell-based or functional assay
[12] = biological target: T cell receptor Vβ7 on murine tumor-draining lymph node T cells (mouse); assay: cell-based or functional assay
[13] = biological target: T cell receptor Vβ12 on murine tumor-draining lymph node T cells (mouse); assay: cell-based or functional assay
[14] = biological target: T cell receptor Vβ14 on murine tumor-draining lymph node T cells (mouse); assay: cell-based or functional assay
[15] = biological target: T cell receptor Vβ8.3 on murine T cells (mouse); assay: cell-based or functional assay
[16] = biological target: T cell receptor Vβ8.1 on murine T cells (mouse); assay: cell-based or functional assay

Compound: CC(C)Cc1ccc(C(C)C(=O)O)cc1 (stereo not drawn) [Ibuprofen]
- effect on SEB induced anorexia and malaise [1]: abrogate some of the anorexia and malaise
- effect on SEB induced fever and anorexia [2]: reduced febrile responses exceeding 105° F. and shortened the period of anorexia and inanition

Compound: Staphylococcus aureus enterotoxin A (SEA) (from UniProt P0A0L2 25-257)
- % of Total T Cells (Vβ use of tumor-draining LN T cells stimulated with SEA) [3]: 34.3%
- % of Total T Cells (Vβ use of tumor-draining LN T cells stimulated with SEA) [4]: < 1%
- % of Total T Cells (Vβ use of tumor-draining LN T cells stimulated with SEA) [5]: 1.5%
- % of Total T Cells (Vβ use of tumor-draining LN T cells stimulated with SEA) [6]: 1.5%
- % of Total T Cells (Vβ use of tumor-draining LN T cells stimulated with SEA) [7]: 0%
- % of Total T Cells (Vβ use of tumor-draining LN T cells stimulated with SEA) [8]: 0%
- % of Total T Cells (Vβ use of tumor-draining LN T cells stimulated with SEA) [9]: 29.9%
- % of Total T Cells (Vβ use of tumor-draining LN T cells stimulated with SEA) [10]: < 1%
- % of Total T Cells (Vβ use of tumor-draining LN T cells stimulated with SEA) [11]: < 1%
- % of Total T Cells (Vβ use of tumor-draining LN T cells stimulated with SEA) [12]: < 1%
- % of Total T Cells (Vβ use of tumor-draining LN T cells stimulated with SEA) [13]: 7.4%
- % of Total T Cells (Vβ use of tumor-draining LN T cells stimulated with SEA) [14]: < 1%

Compound: staphylococcal enterotoxin B (SEB) (from UniProt P01552 28-266)
- % of Total T Cells (Vβ use of tumor-draining LN T cells stimulated with SEB) [3]: 2.9%
- % of Total T Cells (Vβ use of tumor-draining LN T cells stimulated with SEB) [4]: 1.2%
- % of Total T Cells (Vβ use of tumor-draining LN T cells stimulated with SEB) [5]: < 1%
- % of Total T Cells (Vβ use of tumor-draining LN T cells stimulated with SEB) [15]: 19.8%
- % of Total T Cells (Vβ use of tumor-draining LN T cells stimulated with SEB) [6]: 15%
- % of Total T Cells (Vβ use of tumor-draining LN T cells stimulated with SEB) [8]: 0%
- % of Total T Cells (Vβ use of tumor-draining LN T cells stimulated with SEB) [9]: 32.5%
- % of Total T Cells (Vβ use of tumor-draining LN T cells stimulated with SEB) [10]: 0%
- % of Total T Cells (Vβ use of tumor-draining LN T cells stimulated with SEB) [11]: 0%
- % of Total T Cells (Vβ use of tumor-draining LN T cells stimulated with SEB) [12]: < 1%
- % of Total T Cells (Vβ use of tumor-draining LN T cells stimulated with SEB) [13]: 0%
- % of Total T Cells (Vβ use of tumor-draining LN T cells stimulated with SEB) [14]: 0%
- % of Total T Cells (Vβ use of tumor-draining LN T cells stimulated with SEB) [16]: 4.8%
